From patent publication US7122360

What was measured:
[1] = test system: GST-CREB [GST: P08515]
[2] = test system: T1, peptide KKRNRTLSVA
T1 sequence: KKRNRTLSVA

[3] = test system: T2, KKRNRTLSVA with the arginine at position n-3 changed to lysine
T2 sequence: KKRNKTLSVA

[4] = test system: KKRNRTLSVA with the arginine at position n-5 changed to leucine
[5] = test system: T3, CREBtide
T3 sequence: EILSRRPSYRK

[6] = test system: T4, Crosstide
T4 sequence: GRPRTSSFAEG

[7] = test system: heat shock protein 27
[8] = test system: GST-MAPKAP-K1a [GST: P08515]
[9] = test system: GST-MSK1
Sequence of GST-MSK1 (chain, as listed by the source): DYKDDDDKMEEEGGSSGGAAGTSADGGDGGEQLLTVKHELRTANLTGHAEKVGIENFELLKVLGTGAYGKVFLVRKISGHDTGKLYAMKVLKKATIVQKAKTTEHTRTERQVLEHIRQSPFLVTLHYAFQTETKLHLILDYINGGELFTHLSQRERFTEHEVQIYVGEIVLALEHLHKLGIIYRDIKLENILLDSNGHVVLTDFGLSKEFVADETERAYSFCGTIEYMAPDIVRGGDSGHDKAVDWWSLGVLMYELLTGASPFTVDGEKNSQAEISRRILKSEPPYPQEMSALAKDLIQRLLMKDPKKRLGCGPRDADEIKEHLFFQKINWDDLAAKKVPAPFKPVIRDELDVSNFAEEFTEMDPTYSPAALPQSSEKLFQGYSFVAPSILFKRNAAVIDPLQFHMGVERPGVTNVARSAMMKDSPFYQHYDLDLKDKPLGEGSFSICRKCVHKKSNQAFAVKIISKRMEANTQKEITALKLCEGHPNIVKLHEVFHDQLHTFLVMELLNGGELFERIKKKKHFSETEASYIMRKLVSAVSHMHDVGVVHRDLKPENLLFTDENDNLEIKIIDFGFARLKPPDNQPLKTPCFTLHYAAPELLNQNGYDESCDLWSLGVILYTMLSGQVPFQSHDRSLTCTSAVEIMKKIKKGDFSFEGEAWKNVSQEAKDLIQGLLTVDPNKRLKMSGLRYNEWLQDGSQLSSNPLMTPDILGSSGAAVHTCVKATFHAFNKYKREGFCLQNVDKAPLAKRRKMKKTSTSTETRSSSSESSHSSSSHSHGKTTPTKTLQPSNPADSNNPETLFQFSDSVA

Sequence of GST-MAPKAP-K1a [GST: P08515] (P08515 whole entry, looked up): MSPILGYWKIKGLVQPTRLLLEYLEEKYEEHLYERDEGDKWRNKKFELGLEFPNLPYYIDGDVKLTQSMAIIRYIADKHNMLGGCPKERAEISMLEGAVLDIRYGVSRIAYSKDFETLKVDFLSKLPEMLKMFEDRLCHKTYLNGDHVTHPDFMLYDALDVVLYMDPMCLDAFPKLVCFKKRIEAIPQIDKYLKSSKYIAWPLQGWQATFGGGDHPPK
Sequence of GST-CREB [GST: P08515] (P08515 whole entry, looked up): as above

GST-MAPKAP-K1a
Km [1]: the Km was too high to be measured | Km and Vmax [2]: almost identical Km and Vmax values as for Crosstide | Km relative to KKRNRTLSVA [3]: increased the Km about 100-fold | Km relative to KKRNRTLSVA [4]: 5 fold | Km relative to MSK1 [5]: Km values that were at least 200-fold higher | Km [6]: 2 to 3 µM

GST-MAPKAP-K2
Km [1]: the Km was too high to be measured | phosphorylation of Ser98 relative to Ser133 of CREB [1]: 10-fold higher level than Ser133 | phosphorylation of substrate in vitro [7]: much more active towards heat shock protein 27

activated GST-MAPK2/ERK2
activity towards Crosstide after incubation with MgATP and activated MAPK2/ERK2 [8]: enhanced over 100-fold | activity towards Crosstide after incubation with MgATP and activated MAPK2/ERK2 [9]: enhanced over 100-fold

activated GST-SAPK1/JNK1γ
activation in vitro (activity towards Crosstide) [8]: did not activate | activation in vitro (activity towards Crosstide) [9]: did not activate

activated GST-SAPK2a/p38a
activation in vitro (activity towards Crosstide) [8]: could not | activation in vitro (activity towards Crosstide) [9]: could also be activated similarly

activated GST-SAPK2b/p38β
activation in vitro (activity towards Crosstide) [8]: could not | activation in vitro (activity towards Crosstide) [9]: could also be activated similarly

activated GST-SAPK3/p38γ
activation in vitro (activity towards Crosstide) [8]: did not activate | activation in vitro (activity towards Crosstide) [9]: did not activate

activated GST-SAPK4/p38δ
activation in vitro (activity towards Crosstide) [8]: did not activate
